According to patent US20230203185A1 (ECO ANIMAL HEALTH, published 2023):

T1: pCD163-SRCR1-9-huFc (porcine, UniProt Q2VL90 47-1028, limits assumed)
T1 construct: also called pCD163:SRCR1-9-Fc; pCD163SRCR1-9-Fc; not shown: human Fc (huFc)
T1 sequence: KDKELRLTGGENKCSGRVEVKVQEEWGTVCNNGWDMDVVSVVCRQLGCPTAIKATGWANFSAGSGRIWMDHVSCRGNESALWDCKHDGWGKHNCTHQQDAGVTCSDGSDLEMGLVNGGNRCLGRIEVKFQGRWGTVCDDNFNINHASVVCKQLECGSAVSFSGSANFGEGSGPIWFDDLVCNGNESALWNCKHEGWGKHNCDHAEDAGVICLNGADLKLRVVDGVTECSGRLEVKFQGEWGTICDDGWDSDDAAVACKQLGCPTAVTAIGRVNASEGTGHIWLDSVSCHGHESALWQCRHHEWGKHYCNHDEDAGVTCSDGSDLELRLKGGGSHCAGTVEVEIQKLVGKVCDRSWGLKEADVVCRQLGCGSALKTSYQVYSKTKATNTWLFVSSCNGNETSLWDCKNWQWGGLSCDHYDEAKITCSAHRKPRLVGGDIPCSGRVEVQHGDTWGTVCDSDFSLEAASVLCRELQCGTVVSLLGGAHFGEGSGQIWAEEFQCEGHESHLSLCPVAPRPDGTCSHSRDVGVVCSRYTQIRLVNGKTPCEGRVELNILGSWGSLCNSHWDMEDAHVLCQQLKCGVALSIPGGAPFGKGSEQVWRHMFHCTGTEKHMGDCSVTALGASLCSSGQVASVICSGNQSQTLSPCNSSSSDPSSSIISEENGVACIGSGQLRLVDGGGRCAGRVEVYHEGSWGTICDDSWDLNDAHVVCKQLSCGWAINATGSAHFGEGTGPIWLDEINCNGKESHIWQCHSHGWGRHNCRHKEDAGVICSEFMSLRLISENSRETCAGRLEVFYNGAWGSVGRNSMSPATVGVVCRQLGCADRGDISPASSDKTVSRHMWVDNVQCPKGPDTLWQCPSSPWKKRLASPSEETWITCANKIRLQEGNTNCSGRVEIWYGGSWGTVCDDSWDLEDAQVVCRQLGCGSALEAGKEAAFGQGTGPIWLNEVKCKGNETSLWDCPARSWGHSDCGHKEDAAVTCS

B1: VHH 017 (3D03) (VHH)
VHH: QLQLVESGGGLVQPGGSLRLSCAASGFTLDDYTIGWFRQAPGKEREGVSCINSITSNTYYADSVKGRFTISRDNAKNTVYLQMNSLTAEDTAIYYCAADSGLFSGSSCLKYRAMRFGSWGQGTQVTVSS
notes: Llama single domain antibody; also called 29(#17); VHCDR3 29(#17); not shown: tags: c-myc tag in periplasmic extract (ELISA, FACS); FLAG and His tags in purified VHH (SPR, infection assays)
B2: VHH 012 (2C07) (VHH)
VHH: QLQLVESGGGLVQAGGSLRLSCVASGRTFSRYAMGWFRQAPGKEREFVAAIAWSTGSTYYANSVKGRFAISGDNAKNTVYLQMNSLKPEDTAVYYCAAETRYCSGFGCLDPRTYGSWGQGTQVTVSS
notes: Llama single domain antibody; also called 41(#12); VHCDR3 41(#12); not shown: tags: c-myc tag in periplasmic extract (ELISA, FACS); FLAG and His tags in purified VHH (SPR, infection assays)
B3: VHH 011 (2B06) (VHH)
VHH: EVQLVESGGGLVQAGGSLRLSCAASGRTLSVYGTGWFRQAPGKEREFVAGISGTTGSTLYADSVKGRFTISRDNAKNTVYLQMNSLKSEDTALYYCAAGGRVYITTSSWAYWGQGTQVTVSS
notes: Llama single domain antibody; also called 57(#11); VHCDR3 57(#11); not shown: tags: c-myc tag in periplasmic extract (ELISA, FACS); FLAG and His tags in purified VHH (SPR, infection assays)
B4: VHH 002 (1B04) (VHH)
VHH: QVQLVESGGGLVQAGGSLRLSCAASGLTFVTYSMGWFRQAPGKEREFVAAHRWSGSAYYAEHADSVEGRFTISRDYAKNMLYLQMNSLKHEDTAVYYCAAGVGSAAQYRYWGRGTQVTVSS
notes: Llama single domain antibody; also called 76(#2); VHCDR3 76(#2); not shown: tags: c-myc tag in periplasmic extract (ELISA, FACS); FLAG and His tags in purified VHH (SPR, infection assays)
B5: VHH 016 (2H11) (VHH)
VHH: EVQLVESGGGLVQAGGSLRLSCAASGRTFAPGSMGWFRQAPGKEREFVAAHRWSGSAYYADYADSVEGRFTISRDYAKNMVYLQMNSLKPGDTAVYYCAAGVGSAAQYTYWGRGTQVTVSS
notes: Llama single domain antibody; also called 77(#16); VHCDR3 77(#16); not shown: tags: c-myc tag in periplasmic extract (ELISA, FACS); FLAG and His tags in purified VHH (SPR, infection assays)
B6: VHH 023 (4E10) (VHH)
VHH: QVQLVESGGGLVQAGGSLRLSCVASSRTSSTYAMGWFRQGPGKERDFVAIISFGGTFYADSVKGRFTISRDNAKNTVYLQMNSLKPEDTAVYYCAAGRTLSKRADSYASWGQGTQVTVSS
notes: Llama single domain antibody; also called 70(#23); VHCDR3 70(#23); not shown: tags: c-myc tag in periplasmic extract (ELISA, FACS); FLAG and His tags in purified VHH (SPR, infection assays)
B7: VHH 015 (2G01) (VHH)
VHH: QVQLVESGGGLVQAGDTLRLSCTASGRTFSSYSMGWFRQAPGKEREFVAAITWNGYITNYADSVKGRFTISRDNTKNTVFLQMNSLKPEETAVYYCAATTFSTTSPISRTYNYWGPGTQVTVSS
notes: Llama single domain antibody; also called 150(#15); VHCDR3 150(#15); not shown: tags: c-myc tag in periplasmic extract (ELISA, FACS); FLAG and His tags in purified VHH (SPR, infection assays)
B8: VHH 001 (1B02) (VHH)
VHH: EVQLVESGGGLVQAGGSLSLSCAASGGTLAMYAMSWFRQAPGKDRKFVAAINTSGRYSRYADSVKGRFTISRDNAKNTATLQMNSLEPEDTAVYYCAATDKGNWALAMSYDYWGQGTQVTVSS
notes: Llama single domain antibody; also called 144(#1); VHCDR3 144(#1); not shown: tags: c-myc tag in periplasmic extract (ELISA, FACS); FLAG and His tags in purified VHH (SPR, infection assays)
B9: VHH 018 (3E01) (VHH)
VHH: QVQLQESGGGLVQVGGSLRLSCVASGRAPSRYVMGWFRQAPGQEREFVAGIAWSGRAPYADSVKGRSTISRDNAKNTVYLQMNSLKPEDTGVYYCAGGEGAIRWTTLDAYDYWGQGTQVTVSS
notes: Llama single domain antibody; also called 49(#18); VHCDR3 49(#18); not shown: tags: c-myc tag in periplasmic extract (ELISA, FACS); FLAG and His tags in purified VHH (SPR, infection assays)
B10: VHH 019 (3E11) (VHH)
VHH: QVQLQESGGGLVQVGSSLRLSCVTSGRTPSRYVMGWFRQAPGQEREFVAAISWSGRAPYADSVKGRFTISRDNAKNTVYLQMNSLKPEDTGVYYCAGGEGAIKWTTLDAYDYWGQGTQVTVSS
notes: Llama single domain antibody; also called 47(#19); VHCDR3 47(#19); not shown: tags: c-myc tag in periplasmic extract (ELISA, FACS); FLAG and His tags in purified VHH (SPR, infection assays)
B11: VHH 020 (3H11) (VHH)
VHH: QVQLQESGGGLVQVGGSLRLSCVASGRTPSRYVMGWFRQAPGQEREFVAGIAWSGRAPYADSVKGRFVISRDSAKNTVYLQMNSLKSEDTGVYYCAGGEGAILWTTPGAYNYWGQGTQVTVSS
notes: Llama single domain antibody; also called 48(#20); VHCDR3 48(#20); not shown: tags: c-myc tag in periplasmic extract (ELISA, FACS); FLAG and His tags in purified VHH (SPR, infection assays)

Molecular target: T1, pCD163-SRCR1-9-huFc
Experiment: SPR; upper end of the range, tied by Table 7 to VHH 017 on pCD163:SRCR1-9-Fc (75.20)
Protocol: (§1) To assess the affinity of selected purified clones to pCD163, pCD163-SRCR1-9-huFc or pCD163-SRCR4-7-huFc proteins were coated by amine coupling on a CM5 sensor ship (GE Healthcare). Surface plasmon resonance (SPR) (Biacore 3000, GE Healthcare) was used to determine the binding kinetics of selected single domain antibodies at pH7.4. Approximately 2000 RU of pCD163-SRCR1-9-huFc or pCD163-SRCR4-7-huFc, proteins at 20 or 30 µg/ml in Acetate buffer pH 5.0 or pH 5.5 were immobilized onto a CM5 chip using the standard amine coupling procedure.
(§2) 1x HBS-EP pH 7.4, were utilized as a running buffer during binding kinetic measurements. Purified VHH were injected at 3-fold dilution (300 nM; 100 nM; 33 nM; 11 nM; 3.7 nM; 1.2 nM; 0.4 nM; 0 nM), for 120 s, at a flow rate of 30 µl/min. RU levels were restored to base levels after regeneration with 10 µl of 10 mM NaOH / 1 M NaCl and 10 µl of 10 mM Glycine pH 1.5 between samples. Fitting 1:1 binding with mass transfer was applied to the set sample curves using the simultaneous fitting option of the BIAevaluation software to calculate the kinetic constants of the antibody-antigen interactions including association rate (ka), dissociation rate (kd) and affinity (KD). Curves were removed from the fitting after visual examination of the residuals and considering the value of Chi2: a minimum of 4 curves were considered for the simultaneous fitting.

Row | Binder | Kd [nM]
1 | B1 | 1 to 75

Molecular target: T1, pCD163-SRCR1-9-huFc
Experiment: SPR (Biacore 3000), antigen amine-coupled on CM5, VHH injected, pH 7.4
Protocol: as §1, §2

Row | Binder | Kd [nM] | koff [s⁻¹] | kon [M⁻¹ s⁻¹]
2 | B2 | 1.03 | 0.00617 | 5.97e+06
3 | B3 | 71.4 | 0.01 | 140000
4 | B1 | 75.2 | 0.083 | 1.1e+06
5 | B4 | 20 | 0.0108 | 539000
6 | B5 | 44.3 | 0.00972 | 219000
7 | B6 | 3.1 | 0.00927 | 2.99e+06
8 | B7 | 14.7 | 0.00583 | 396000
9 | B8 | 7.08 | 0.0178 | 2.52e+06
10 | B9 | 16.5 | 0.0134 | 814000
11 | B10 | 8.77 | 0.0102 | 1.16e+06
12 | B11 | 9.15 | 0.00865 | 945000

Molecular target: T1, pCD163-SRCR1-9-huFc
Experiment: SPR; lower end of the range, tied by Table 7 to VHH 012 on pCD163:SRCR1-9-Fc (1.03)
Protocol: as §1, §2

Row | Binder | Kd [nM]
13 | B2 | 1 to 75
